The values that follow are results of earlier work, collected in PMC4188523.

Series [1] addresses Asp52 (UniProt position 70, TDGSTDYGILQ). The series can be described thus: NMR (according to the title of cited reference 36; not described in this article).
Series [2] concerns the target Glu35 (UniProt position 53, CAAKFESNFNT). Described as above.

For “Hen egg white lysozyme (HEWL, lysozyme C) (Gallus gallus)”, the pKa entry in series [1] is “∼3.6”; in series [2], “∼6.2”.
